US20110294740A1

Biological target: Dutch/Iowa CAA double mutant Aβ40 (UniProt P05067)
Experiment: SPR, Aβ peptide immobilised, MBP as analyte

Chain of Dutch/Iowa CAA double mutant Aβ40 (P05067 672-711, change not shown): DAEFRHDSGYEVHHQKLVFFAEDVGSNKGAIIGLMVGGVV
Chain of myelin basic protein (purified MBP) (P02686 135-304 limits assumed): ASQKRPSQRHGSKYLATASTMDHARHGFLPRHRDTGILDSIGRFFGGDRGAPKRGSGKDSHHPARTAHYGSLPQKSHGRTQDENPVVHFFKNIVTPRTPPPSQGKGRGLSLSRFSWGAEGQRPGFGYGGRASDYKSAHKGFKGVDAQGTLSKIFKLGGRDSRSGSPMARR

- Kd: 16.9 nM
Substance: myelin basic protein (purified MBP) (from UniProt P02686 2-171)
